Experimental data taken from patent publication US20240132578A1.

What was measured:
[1] = molecular target: WT JR-FL gp120 (HIV-1 JR-FL); test: ELISA, antigen-coated wells, mAb titrated; EC50 by nonlinear regression
[2] = molecular target: HIV-1 Env of isolate MGRM-Chronic-B-024 (HIV-1); test: cell-based or functional assay
[3] = molecular target: HIV-1 Env of isolate MGRM-Chronic-B-012 (HIV-1); test: cell-based or functional assay
[4] = molecular target: HIV-1 JR-CSF Env S334A (HIV-1 isolate JR-CSF) (UniProt P20871); test: cell-based or functional assay
[5] = molecular target: HIV-1 Env of isolate 92WR021 (pseudovirus) (HIV-1); test: cell-based or functional assay
[6] = molecular target: HIV-1 Env of isolate QH0692.42 (HIV-1); test: cell-based or functional assay
[7] = molecular target: HIV-1 Env of isolate 92WR020 (pseudovirus) (HIV-1); test: cell-based or functional assay
[8] = molecular target: HIV-1 Env of isolate 93IN905 (HIV-1); test: cell-based or functional assay
[9] = molecular target: HIV-1 Env of isolate 92UG037 (pseudovirus) (HIV-1); test: cell-based or functional assay
[10] = molecular target: HIV-1 Env of isolate 98IN022 (HIV-1); test: cell-based or functional assay
[11] = molecular target: HIV-1 Env of isolate SC422661.8 (HIV-1); test: cell-based or functional assay
[12] = molecular target: HIV-1 Env of isolate JRCSF (HIV-1) (UniProt P20871); test: cell-based or functional assay
[13] = molecular target: HIV-1 Env of isolate 92UG031 (pseudovirus) (HIV-1); test: cell-based or functional assay
[14] = molecular target: HIV-1 Env of isolate 97ZA012 (HIV-1); test: cell-based or functional assay
[15] = molecular target: HIV-1 Env of isolate MGRM-Chronic-B-011 (HIV-1); test: cell-based or functional assay
[16] = molecular target: HIV-1 Env of isolate THR0.18 (HIV-1); test: cell-based or functional assay
[17] = molecular target: HIV-1 Env of isolate MGRM-Chronic-B-018 (HIV-1); test: cell-based or functional assay
[18] = molecular target: HIV-1 Env of isolate MGRM-Chronic-B-023 (HIV-1); test: cell-based or functional assay
[19] = molecular target: HIV-1 Env of isolate 92WR024 (pseudovirus) (HIV-1); test: cell-based or functional assay
[20] = molecular target: HIV-1 Env of isolate TRO.11 (HIV-1); test: cell-based or functional assay
[21] = molecular target: HIV-1 Env of isolate 93MW959 (HIV-1); test: cell-based or functional assay
[22] = molecular target: HIV-1 JR-CSF Env R419A (HIV-1 (isolate JR-CSF)) (UniProt P20871); test: cell-based or functional assay
[23] = molecular target: HIV-1 Env of isolate NL43 (HIV-1); test: cell-based or functional assay
[24] = molecular target: HIV-1 JR-CSF Env I424A (HIV-1 (isolate JR-CSF)) (UniProt P20871); test: cell-based or functional assay
[25] = molecular target: HIV-1 Env of isolate VLGCB3 (HIV-1); test: cell-based or functional assay
[26] = molecular target: HIV-1 Env of isolate PVO.4 (HIV-1); test: cell-based or functional assay
[27] = molecular target: HIV-1 Env of isolate 93WR029 (pseudovirus) (HIV-1); test: cell-based or functional assay
[28] = molecular target: HIV-1 Env of isolate MGRM-Chronic-B-010 (HIV-1); test: cell-based or functional assay
[29] = molecular target: HIV-1 Env of isolate MGRM-Chronic-B-020 (HIV-1); test: cell-based or functional assay
[30] = molecular target: HIV-1 Env of isolate 93UG077 (pseudovirus) (HIV-1); test: cell-based or functional assay
[31] = molecular target: HIV-1 JR-CSF Env L416A (HIV-1 (isolate JR-CSF)) (UniProt P20871); test: cell-based or functional assay
[32] = molecular target: HIV-1 Env of isolate MGRM-Chronic-B-017 (HIV-1); test: cell-based or functional assay
[33] = molecular target: HIV-1 Env of isolate SF162 (HIV-1) (UniProt P19550); test: cell-based or functional assay
[34] = molecular target: HIV-1 Env of isolate TRJ04551.58 (HIV-1); test: cell-based or functional assay
[35] = molecular target: HIV-1 92RW020 Env (HIV-1); test: cell-based or functional assay
[36] = molecular target: HIV-1 Env of isolate 94UG103 (pseudovirus) (HIV-1); test: cell-based or functional assay
[37] = molecular target: HIV-1 Env of isolate MGRM-AE-004 (pseudovirus) (HIV-1); test: cell-based or functional assay
[38] = molecular target: HIV-1 Env of isolate MGRM-AE-006 (pseudovirus) (HIV-1); test: cell-based or functional assay
[39] = molecular target: HIV-1 Env of isolate MGRM-AE-005 (pseudovirus) (HIV-1); test: cell-based or functional assay
[40] = molecular target: HIV-1 envelope glycoprotein (Env) of isolate MGRM-Chronic-B-011, on pseudovirus (HIV-1); test: cell-based or functional assay

Row | Substance | EC50 [1] | IC50 (µg/mL), pseudovirus neutralization [2] | IC50 (µg/mL), pseudovirus neutralization [3] | Fold IC50 increase relative to wild-type [4] | IC50 (µg/mL), pseudovirus neutralization [5] | IC50 (µg/mL), pseudovirus neutralization [6] | IC50 (µg/mL), pseudovirus neutralization [7] | IC50 (µg/mL), pseudovirus neutralization [8] | IC50 (µg/mL), pseudovirus neutralization [9] | IC50 (µg/mL), pseudovirus neutralization [10] | IC50 (µg/mL), pseudovirus neutralization [11] | IC50 (µg/mL), pseudovirus neutralization [12] | IC50 (µg/mL), pseudovirus neutralization [13] | IC50 (µg/mL), pseudovirus neutralization [14] | IC50 (µg/mL), pseudovirus neutralization [15] | IC50 (µg/mL), pseudovirus neutralization [16] | Fold IC50 increase relative to wild-type (pseudovirus neutralization) [22] | Fold IC50 increase relative to wild-type (pseudovirus neutralization) [24] | Fold IC50 increase relative to wild-type (pseudovirus neutralization) [31] | IC50, pseudovirus neutralization [35] | also measured
1 | 5343_B08 (PGT-135) (antibody) | 0.1 µg/mL | > 50 µg/mL | 0.166 µg/mL | > 30 fold | > 50 µg/mL | > 50 µg/mL | 0.067 µg/mL | 0.011 µg/mL | 3.67 µg/mL | 0.014 µg/mL | 21.8 µg/mL | 0.131 µg/mL | > 50 µg/mL | > 50 µg/mL | > 50 µg/mL | > 50 µg/mL | 3.9 fold | 0.1 fold | 1.2 fold | 0.157 µg/mL | IC50 (µg/mL), pseudovirus neutralization [17]: > 50 µg/mL; IC50 (µg/mL), pseudovirus neutralization [18]: 0.329 µg/mL; IC50 (µg/mL), pseudovirus neutralization [19]: > 50 µg/mL; IC50 (µg/mL), pseudovirus neutralization [20]: 0.03 µg/mL; IC50 (µg/mL), pseudovirus neutralization [21]: > 50 µg/mL; IC50 (µg/mL), pseudovirus neutralization [23]: 8.03 µg/mL; IC50 (µg/mL), pseudovirus neutralization [25]: 0.142 µg/mL; IC50 (µg/mL), pseudovirus neutralization [26]: > 50 µg/mL; IC50 (µg/mL), pseudovirus neutralization [27]: > 50 µg/mL; IC50 (µg/mL), pseudovirus neutralization [28]: > 50 µg/mL; IC50 (µg/mL), pseudovirus neutralization [29]: 0.057 µg/mL; IC50 (µg/mL), pseudovirus neutralization [30]: > 50 µg/mL; IC50 (µg/mL), pseudovirus neutralization [32]: > 50 µg/mL; IC50 (µg/mL), pseudovirus neutralization [33]: 0.023 µg/mL; IC50 (µg/mL), pseudovirus neutralization [34]: > 50 µg/mL; IC50 (µg/mL), pseudovirus neutralization [36]: > 50 µg/mL
2 | 5145_B14 (PGT-127) (antibody) | 0.1 µg/mL |  |  | > 500 fold |  |  |  |  |  |  |  |  |  |  |  |  | 2.5 fold | 2 fold | 1 fold |  | IC50 (µg/mL), pseudovirus neutralization [37]: > 50 µg/mL; IC50 (µg/mL), pseudovirus neutralization [38]: > 50 µg/mL; IC50 (µg/mL), pseudovirus neutralization [39]: > 50 µg/mL; IC50, pseudovirus neutralization [40]: 0.297 µg/mL
3 | 5147_N06 (PGT-130) (antibody) | 0.2 µg/mL | 5.78 µg/mL | 0.373 µg/mL | 0.5 fold | 0.004 µg/mL | > 50 µg/mL | 0.039 µg/mL | 0.02 µg/mL | 0.061 µg/mL | > 50 µg/mL | > 50 µg/mL | 0.01 µg/mL | > 50 µg/mL | 1.32 µg/mL | 0.153 µg/mL | > 50 µg/mL | 2.6 fold | 3.9 fold | 1 fold | 0.014 µg/mL | IC50 (µg/mL), pseudovirus neutralization [17]: 31.9 µg/mL; IC50 (µg/mL), pseudovirus neutralization [18]: > 50 µg/mL; IC50 (µg/mL), pseudovirus neutralization [19]: > 50 µg/mL; IC50 (µg/mL), pseudovirus neutralization [20]: 0.257 µg/mL; IC50 (µg/mL), pseudovirus neutralization [21]: 8.55 µg/mL; IC50 (µg/mL), pseudovirus neutralization [23]: > 50 µg/mL; IC50 (µg/mL), pseudovirus neutralization [25]: 4.6 µg/mL; IC50 (µg/mL), pseudovirus neutralization [26]: 5.17 µg/mL; IC50 (µg/mL), pseudovirus neutralization [27]: 34.3 µg/mL; IC50 (µg/mL), pseudovirus neutralization [28]: 0.006 µg/mL; IC50 (µg/mL), pseudovirus neutralization [29]: 0.014 µg/mL; IC50 (µg/mL), pseudovirus neutralization [30]: 21.4 µg/mL; IC50 (µg/mL), pseudovirus neutralization [32]: > 50 µg/mL; IC50 (µg/mL), pseudovirus neutralization [33]: 0.007 µg/mL; IC50 (µg/mL), pseudovirus neutralization [34]: 0.023 µg/mL; IC50 (µg/mL), pseudovirus neutralization [36]: 1.4 µg/mL
4 | 5123_A06 (PGT-125) (antibody) | 0.2 µg/mL |  |  | 0.8 fold |  |  |  |  |  |  |  |  |  |  |  |  | 1 fold | 0.7 fold | 0.8 fold | 0.0028 µg/mL | IC50 (µg/mL), pseudovirus neutralization [37]: > 50 µg/mL; IC50 (µg/mL), pseudovirus neutralization [38]: 0.009 µg/mL; IC50 (µg/mL), pseudovirus neutralization [39]: 0.01 µg/mL; IC50, pseudovirus neutralization [40]: 3.23 µg/mL
